Paper PMC5929103

What was measured:
[1] = biological target: human kallikrein-6, active (human) (UniProt Q92876); experiment: enzyme inhibition kinetics
[2] = biological target: yeast-displayed APPI_(M17G/I18F/F34V) (human); experiment: flow cytometry on cells
[3] = biological target: mesotrypsin (Homo sapiens) (UniProt P35030); details: cited from earlier work
Sequence of UniProt P35030 (P35030 2-304): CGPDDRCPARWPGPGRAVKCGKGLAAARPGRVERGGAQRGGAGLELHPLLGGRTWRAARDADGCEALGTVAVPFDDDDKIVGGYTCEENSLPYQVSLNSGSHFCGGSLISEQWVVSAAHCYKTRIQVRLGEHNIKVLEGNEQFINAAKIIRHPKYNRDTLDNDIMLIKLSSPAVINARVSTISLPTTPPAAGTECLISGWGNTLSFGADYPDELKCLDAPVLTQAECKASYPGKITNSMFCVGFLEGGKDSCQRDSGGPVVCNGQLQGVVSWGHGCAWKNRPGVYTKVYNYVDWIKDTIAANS

| Kd [2] [nM] | Substance | further results |
| --- | --- | --- |
| 31 | catalytically inactive human cationic trypsin S195A, labelled with DyLight 650 (enzyme) | – |
| 26 | catalytically inactive human mesotrypsin S195A, labelled with DyLight 488 (enzyme) | – |
| 42 | catalytically inactive human anionic trypsin S195A, labelled with DyLight 650 (enzyme) | – |

Second part, the substance before the results:

| Substance | Kd [2] [nM] | further results |
| --- | --- | --- |
| APPI_(P13W/M17G/I18F/F34V), soluble form (designed binder) | – | Ki [1]: 7.6 nM |
| APPI Kunitz domain (from UniProt P05067) | – | Ki [3]: 140 nM |
